According to article PMC6433294, “Differential thermal stability, conformational stability and unfolding behavior of Eis proteins from Mycobacterium smegmatis and Mycobacterium tuberculosis” (PLoS ONE, 2019):

Legend:
[1] = system: NC[C@H]1O[C@H](O[C@H]2[C@H](O)[C@@H](O[C@H]3O[C@H](CO)[C@@H](O)[C@H](N)[C@H]3O)[C@H](N)C[C@@H]2N)[C@H](O)[C@@H](O)[C@@H]1O; assay: purified protein
[2] = molecular target: the molecule itself; assay: SEC; untreated protein, 100 ug, Superose 6 Increase 10/300 GL, 10 mM Tris-Cl pH 8.0, 150 mM NaCl, 1 mM EDTA, 0.5 mM beta-ME, 25°C, 0.5 ml/min; calibrated with molecular weight markers
[3] = molecular target: the molecule itself; assay: SDS-PAGE of unboiled sample; 10 ug unboiled protein on 8% SDS-PAGE, loading dye with 1% SDS, 0.125 M Tris pH 6.8, 40% glycerol; Coomassie stain
[4] = fixed acetyl-CoA (500 μM in the standard assay), 2 mM DTNB, 0.5 μM enzyme, 20 mM phosphate pH 8.0, 25°C

Molecule “MsEis (Mycolicibacterium smegmatis MC2 155)” has a Km [1, 4] of 21 ± 0.1 µM, a Vmax [1, 4] of 4.8 µM/min and a kcat [1, 4] of 0.027 ± 0.005 s⁻¹. The kcat/Km [1, 4] was 1270 ± 22 M⁻¹ s⁻¹.

Molecule “RvEis (Mycobacterium tuberculosis H37Rv)” has a Km ([1]; pH 8.0, 25.0 °C) of 11 ± 1.6 µM, a Vmax ([1]; pH 8.0, 25.0 °C) of 4 µM/min and a kcat/Km ([1]; pH 8.0, 25.0 °C) of 2140 M⁻¹ s⁻¹.

B1: M. smegmatis Eis (MSMEG_3513) protein (enzyme, UniProt A0QY29 1-402, looked up)
chain: MITPRTLHTITDDDWTRIALLARFAFGDIEPEQTQAAWRSMVPEDATVVVPDETDDAFVGQSLYLDMQLTVPGGEVLPVAGISFVAVAPTHRRRGVLRAMYTELHDRIARAGYPLAVLTASEGGIYGRFGYGVATIEQHVSVDRRLAQFHPAAPDPGGVRMLVPADHRDGLADIYDRWRRRTPGGLVRPDALWDDLLADRPESRRGGGELFAFGHQDGYALYRVDRGPDGRRSAHVVELTAVTADAHAALWRALLGLDLIDRVSIGTHPHDPLPYLLTDPRQAQVTASADDLWIRIMNVPAALEARRYQADLDVVLDVADGFRSDGGRFALQISGGRARCTTTDAPADIEIDLDVLGGLYLGAHRVDGFAAANRLRSKDSELLQQFGAAFAGDMPAELGYGF
notes: also called MsEis; Enhanced Intracellular Survival protein from M. smegmatis
With B1 the “stoichiometry N” value [2] was 6.

B2: M. tuberculosis Eis (Rv2416c, Enhanced Intracellular Survival protein) (enzyme)
chain: MTVTLCSPTEDDWPGMFLLAAASFTDFIGPESATAWRTLVPTDGAVVVRDGAGPGSEVVGMALYMDLRLTVPGEVVLPTAGLSFVAVAPTHRRRGLLRAMCAELHRRIADSGYPVAALHASEGGIYGRFGYGPATTLHELTVDRRFARFHADAPGGGLGGSSVRLVRPTEHRGEFEAIYERWRQQVPGGLLRPQVLWDELLAECKAAPGGDRESFALLHPDGYALYRVDRTDLKLARVSELRAVTADAHCALWRALIGLDSMERISIITHPQDPLPHLLTDTRLARTTWRQDGLWLRIMNVPAALEARGYAHEVGEFSTVLEVSDGGRFALKIGDGRARCTPTDAAAEIEMDRDVLGSLYLGAHRASTLAAANRLRTKDSQLLRRLDAAFASDVPVQTAFEF
notes: also called RvEis; not shown: His tag, N-terminal, kept
In the case of B2, the “stoichiometry N” value [3] is reported as 3 and the “stoichiometry N” value [2] is reported as 6.
